The values below come from the NTF2 design screens of Basanta et al. (2020).

The nature of the data set: protease stability score; higher = more stable; yeast display proteolysis, trypsin and chymotrypsin.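 Also: relative to predicted unfolded state with 0 unfolded-like and 1 meaning tenfold more protease.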
As to “HEDEHLMKRVAELIFRLLVTGDEDRMRDLLDPTTRMDINGKEFHGRDQVIEVWRRLIDHIRIEEVHLEDHDIYGDKVRWHMRIRTRQGDKQLHLETRFTADKFNGRWELQTVIFK”, the protease stability score is 1.64.
Next, “HEDEHLSRRFAELVLTYLETGDEDSILEMADPHVRTELIIGDKTFRYIGRENLERWLHEVLRKFKNLRFVPKRLHIQGDKVIMRGYVIFDGRTHETEMIWIVINGRIHAVLHHEH”: 1.81; “HEDEHQAEHLLEAVFHIFLTGDWRSLHELVDPNVRFDVNGRRTHGREDLIRFSRELRIHDVRFHRVKLDVYDGRVEMRIDGRIDGEINGRRTDVRSIIEIEFIKFNGQWRVESISLNFH”: 1.44; “HEDEHYMQRIAEDILKSFLTGDFDHIYRMADPHVKLIVGDKESIGRDDMETMLRIWLEILGADHLEVKDLKTRLVGDKIEVNVDNRIQIGDKLINVKIEIIFEKVNGRWKVSRITLKLR”: 1.5.
Next, “HEDEKEAEDAVREFLHNVSTGDEERMLELMDPNARLIYNGREYHGRELITHLIRELGVKVVRWRHLEVQGEKVHVDLRDTVGDKTIKTHLIFHKINGKWKVDEVKFD”: 2.26; “HEDEKIARELTELLLHHFHTGNEESLSKLMDPNVRVIAENHELHGMEKKIEKNRKYLKDLGVDHFSFELRHLDLQGDKARVEGIEHWTINGQHHERHMVLHIVVVNGRLQESSIEIR”: 0.929; “HEDEKVLKEMLRILAEVITTGNEEVMKRLADPHVRIDWNGRDIIGMEERYRKLREMGIEFEVRIHLRDTRSVGEKVEFITQLDVHIRVGDKTINFHQETRVDMEKVDGRWRVNEEKVV”: 0.415.
“HEDEKWMKHMLEMLIRSILTGDEETLHKLADPHVRLEINGQEYWGREQFTHAITQFIRHIRIDSIHVHDYHIQGEKVDFDMRSKFTINGQVDTSRLRVFILKVDGRWVVEEVIIR”: the protease stability score worked out at 2.27.
With “HEDEQLAREFVEHLTENLRTGNEERIAELADPHVRVDIGDKHLHGWEWLRRRVRELRFHDLIIHHVEVIDGRIIFRGRMDGRVNGRHTQTEVRVELDKIDGRWTIRHIEIR”, the protease stability score was determined as 2.01.
Next, “HEDERAFEHFIELLMHTLRTGDEELWKHLADPNYLLDVGDKHFIGRERVVEWIRHIRIKDVRVEHYKIQGDKAEIHTRVDGNIDGKELNLHSRFKMHKVDGRWLLEEVEFR”: 2.22; “HEDERDAEEMLRLIEEAVYTGDEDLTKYLMDPNVRIHVGDKEFHGRDFLIMRLLEIRHHRFRLELHDIRIQGNKVILDVRWRLDGEINGQRFDDTWDVIIIAEKVNGQWRVQTLIIR”: 2.59; “HEDERHLHEIIKRWFEALLTGDEHVLERLLDPNARIDIDGREFIGMEKFAHDISRIKNMQIKHHHIKHVRYVDGVMHWHGQRHGVVNGQEKNVEVIINLFVYDGRFKSMHIKDD”: 1.06.
“HEDERLMKEALEMIIESFRTGDEHTIEELADPHARVIVGDKHHHGWHELLKRVLELGVKHVNVRDMRVIGDKLEVKLELHVGDKTFDSRLHVLKVNGKWHIQFVEIH” yielded a protease stability score of 1.75.
Next, “HEDEVFFKLILHLLLEDYRTGDWESLEKFLDPSYKLVFDGKDIHGRERAVTIMRHEAHEMRIEDYHIRSLETQGDKLLLHGKFQGIVNGQRRESEIHLVILKVDGRWLWHSVQIN”: 1.01.
The same measure for “HEDHERVRHIIERWWHILETGDEDEMEDMADPNVQIYIGDKRHHGREILAEHVRKFKGKKVNIKRLDIQGDKFRVDGDVHYDGRHHRVRIEIDVVDGRIKRLRIEIE”: 1.38; for “HEDHKFLNEFVELWLRAEHTGDEDWLEENADPNTRVEVNGKSIHGMEYELRHLHHVLDRFKNMTFDTTVTRIDQQGDKAKVKVEIRLDIDGKDIRLEVDLIITKINGRWIVREIRYK”: 1.22.
Next, “HEDKKSLEDFLELLLHAIATGDEEILRHLLDPNVRLDIDGRHVVGREELLRWFREIRVKRSDIRIDHFHVQGDKIHADVTDLYDGEFNGKRHLMVLKTELILVKFNGRWHIRTMHFH”: 2.23; “HEDKQMMEEAVKLWIETSLTGDWRTFHRLADPHVKLQQGDKDLHGREDTRELMEKLGLDRVDIHIRKFRLYDGRIELHVEENFNGKVFEIFIDMRKVDGRWELHRVELR”: 1.43; “HEDNDIMEKAMEDILEKIVTGDEDFLREQMDPHVRSVDIINGRRIERHGREDILELLRRLGFDHVRLERYDIQGDKLIVHSKFTYGDKETELRIIIWKVNGRWVFHSVEVIIL”: 1.87.
Consider “HEDQERLKRFLEFYVHLINTGDEDRIRDLIDPHARVDIDGRIYHGREMYTQAYRDLGIDYLEIKRWEIQGDKVHLDTRVHIDGVERQTHLIIMKFNGRWIVHTMEVQ”, for which the protease stability score is 1.56.
Next, “HEDRKLEREIAEEMVKLWLTGDETRFEQLADPHVRVEDGDKESHGRENFSKLVRHRKTEFGIDHIEVEDIRVYDGRVEIRVRMEIGEKETHVRIIQVVINGRLKSVHLHFR”: 0.771.
For “HEDYEDLDKLREHLLTAMKTGDWEVMYRNFDPHVRLLYNGKDTHGREDLRRLVEEMRTRDVRIIITREEIQGNKVFMHGTLEVDGNWNGVDRHIHREVTHIMVKIDGRWIVTVERIR”, the protease stability score was determined as 0.899.
Regarding “HEEDEDAERAMRILVEWTKTGDEDKLRRNMDPNVKLWIDGQELHGRDSFKHLLTRFKNVKFEISDIRVLNHEEVVEIQLDTHLRIDGREHRVEIILIVIKVNGKWVMKLVEVRVR”, the protease stability score was 2.12.
In turn, “HEEDEMAIKIVELFIHALHTGNEELLHNLLDPEVRLTVDGRRIHGRHWVLRELLHIRVHDIHWTDIDKVNGKIELHTRQDGDVDGRRHEVNVTLVVIKVDGQWILHSVMVE” returned a protease stability score of 2.09.
The same measure for “HEEDERIEHFFELYKRSLKTGNEEIIEYLFDPHVRYEQGDWEVHGRTEFIEMLKHLRFHTVRLRDYRLIGDYVHLDIELEGRVGDKNLHVKSTLIALKVDGRWRIHTLEIE”: 0.772.
Next, “HEEDHHMEIAIELNQRMLQTGDEELLEKLADPSVRLKQGDKDVHGRHVVSRWLHEVIMKFPNVTIIERHVRIIDGKVHFHGDWHFNGVDQHVTIIAEKVNGRWILKTIELK”: 0.983.
In turn, “HEEDKWMKEVLYRFYEHYQTGDEDSLVKLMDPHAKLSFEGRENHGRDAIKTYWDIMGFDHLRLRDYEIRIIDGRAHLIVDTEIEIGDKRRRTIIIMHVLKFNGRWIVTHFHVEVR” gave a protease stability score of 0.835.
The same measure for “HEEEEEAERFVKEIIHSWKTGNEDDMHRLVDPNVRLIIGDKTYHGRENFVKHMEEWLQRAGVKHFHLRKVDVFDGKLDIHSEVRQGSDETELHISVEKINGRWRLQLVIIV”: 1.7.
With “HEEEEEARDLLKKLLEDFETGNEESLHEYADPNTRTIWDGVEFHGREWMLEIIKQIRVHSVHIHDVRLIDGVLIVKGRMDGDINGQRHTLEVNIFFLKINGRWFFHHMEFE”, the protease stability score worked out at 2.51.
As to “HEEEEEARRFSTLFNRAMLTGDEDELKEYADPHVRIDINGVILHGRERLREWLEKYLKEIRWHDFKIEHVDVQGDKVDIKVNVDGHINGRRTTRETEIRVEKIDGRWVIREIRFR”, the protease stability score amounted to 0.673.
On to “HEEEEEFKHVVKEVKEFSETGDWDVLNELMDPHVRLFVNGRLHHGREQISEFWHKVKNVTLIIRHIRPVGEKLEVDGEMKFDGKNIEARIHAQKIDGRWITREYRII”, for which the protease stability score amounted to 1.12.
The same measure for “HEEEEEIKEATRLFEEIHRTGDERESREMIDPNALFEVGNFKDHGWDSIHVLMRRVKNVKITLDDFKIQGDKVHLHITENFNGKRVHVTIIAVKINGVWFVHKIRYD”: 1.44; for “HEEEEEIVRHLEKLLRDLWTGDWDDIEHNLDPNVRIEYGEKTRVGREKFVKTFFDMGMKLRHVRINEFHVVDGRLHVDTRIDGNFNGVEFRTRVEIIAVKINGKWVLHSVHIL”: 1.22.
“HEEEEEVKEALKELKELLETGDEDLWRRLADPDTRFELEFEGRHFHLHGWEAVLHFIREIKRRFKNVQFDWKRLNTQGNFAHMHVEIRVGDKIIHLDIIVLKYNGQWLDKRVRIFFE” returned a protease stability score of 1.91.
